Measured values from paper PMC8476842, “Uncovering and Engineering a Mini-Regulatory Network of the TetR-Family Regulator SACE_0303 for Yield Improvement of Erythromycin in Saccharopolyspora erythraea”.

T1: SACE_0303 (TetR-family regulator) (Saccharopolyspora erythraea) (UniProt A4F6H8)
T1 sequence: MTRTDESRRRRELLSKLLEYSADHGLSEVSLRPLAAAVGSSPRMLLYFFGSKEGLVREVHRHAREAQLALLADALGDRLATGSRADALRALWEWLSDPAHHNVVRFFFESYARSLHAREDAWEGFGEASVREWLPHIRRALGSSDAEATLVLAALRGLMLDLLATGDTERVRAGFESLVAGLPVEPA

T2: SACE_0303 (TetR-family regulator) (Saccharopolyspora erythraea, UniProt A4F6H8 1-187)
T2 sequence: T1 sequence

B1: P0303-0304-56 bpM (dsDNA)
DNA 1: GGGTCATCCGGATATCGTAAAGCTTGGACTGGAATTCGAGGGCGCATGGGCGGCAT
DNA 2: ATGCCGCCCATGCGCCCTCGAATTCCAGTCCAAGCTTTACGATATCCGGATGACCC

How the values were obtained:
[1] = biological target: T1, SACE_0303 (TetR-family regulator) (Saccharopolyspora erythraea); assay: EMSA; conditions: EMSA: 10 mM Tris-HCl pH 7.5, 60 mM KCl, 50 mM EDTA (so in the source), 10 mM DTT, 5 mM MgCl2, 10% glycerol, 150 ng probe, 20 uL, 30 C 20 min; footprint at 20 C
[2] = biological target: T1, SACE_0303 (TetR-family regulator) (Saccharopolyspora erythraea); assay: DNase I footprinting; conditions: EMSA: 10 mM Tris-HCl pH 7.5, 60 mM KCl, 50 mM EDTA (so in the source), 10 mM DTT, 5 mM MgCl2, 10% glycerol, 150 ng probe, 20 uL, 30 C 20 min; footprint at 20 C
[3] = biological target: T2, SACE_0303 (TetR-family regulator); assay: EMSA; EMSA: 10 mM Tris-HCl pH 7.5, 60 mM KCl, 50 mM EDTA (so in the source), 10 mM DTT, 5 mM MgCl2, 10% glycerol, 150 ng probe, 20 uL, 30 C 20 min; footprint at 20 C; conditions: protein: recombinant; tags: His6 (pET28a, NdeI/HindIII); chain copies: 2; blunt

| Molecule | binding [1] | binding [2] | binding result [3] |
| --- | --- | --- | --- |
| AGCTTTGACAGGTCCGCCACGCGTCCCCCTACTCGACGACCACGCAATGGGCGAACAATATAGGAAGGATCAAGAGGTTGACATCGCCTCGTCGAGCCAACGAACCTGTGAACATCTGCATGTTGACAAGATCAACGGCGGCTACCTACTGTGGTGGCCCAGTGACGGGTTGCCGCACATCGCGCTGGGGAGATTCTTTGAATTTCGCCCGTAGCACCGACCTGGAAAGCGAGCAAATGCTCCGGTGAATGGGATCAGTGATTC (double strand) [PeryAI] | no binding | – | – |
| CGACCTCGGCCGCCTGCTGTCCTGCCGGCGGGCGGCACGTGCCGCGGTCCGCTGAAACGGTTGCGAAAACGGGAAATCACCGCTGAGGGTGGCCGCCGCCGGCGGATTGCGCCGCCGAGATCGGCATGCCTAGGCTTCCACCACCGCTCCATCACGTGCGGGGTCCGGGTCCGGGAGCAGCCGATGCCGCAAGACGCGTGTACTTCCGCCCGGCAGAACACGTCCTCG (double strand) [P3156] | binds | – | – |
| CGCTGGATCCTACCAACCGGCACGATTGTCCAGCCCACAACAGCATCGCGGTGCCACGTGTGGACCGCGTCGGTCAGATCCTCCCCGCACCTCTCGCCAGCCGTCAAGATCGACCGCGTGCACCTGCGATCGCCGATCAACCGCGACTAGCATCGGGCGCAAGCCGCCACTCGAACGGACACTCGC (double strand) [PermE] | no binding | – | – |
| GGCGACGGCGGCTTTCGTCGGTGCGGGTCATCCGGATATCGTACTGAAACGACTGTTTCAGGAGGGCGCATGGGCGGCATCGAGATCCGCACCGGCCCGC (double strand) [P0303-0304] | binds | binds | – |
| B1 | – | – | no binding |
